IntAct's records for PubMed 30126976

B1: Mitogen-activated protein kinase 12 (Homo sapiens), P53778 (parent)
chain: MSSPPPARSGFYRQEVTKTAWEVRAVYRDLQPVGSGAYGAVCSAVDGRTGAKVAIKKLYRPFQSELFAKRAYRELRLLKHMRHENVIGLLDVFTPDETLDDFTDFYLVMPFMGTDLGKLMKHEKLGEDRIQFLVYQMLKGLRYIHAAGIIHRDLKPGNLAVNEDCELKILDFGLARQADSEMTGYVVTRWYRAPEVILNWMRYTQTVDIWSVGCIMAEMITGKTLFKGSDHLDQLKEIMKVTGTPPAEFVQRLQSDEAKNYMKGLPELEKKDFASILTNASPLAVNLLEKMLVLDAEQRVTAGEALAHPYFESLHDTEDEPQVQKYDDSFDDVDRTLDEWKRVTYKEVLSFKPPRQLGARVSKETPL
B2: Guanylate cyclase soluble subunit alpha-2 (Homo sapiens), P33402 (parent)
chain: MSRRKISSESFSSLGSDYLETSPEEEGECPLSRLCWNGSRSPPGPLEPSPAAAAAAAAPAPTPAASAAAAAATAGARRVQRRRRVNLDSLGESISRLTAPSPQTIQQTLKRTLQYYEHQVIGYRDAEKNFHNISNRCSYADHSNKEEIEDVSGILQCTANILGLKFEEIQKRFGEEFFNICFHENERVLRAVGGTLQDFFNGFDALLEHIRTSFGKQATLESPSFLCKELPEGTLMLHYFHPHHIVGFAMLGMIKAAGKKIYRLDVEVEQVANEKLCSDVSNPGNCSCLTFLIKECENTNIMKNLPQGTSQVPADLRISINTFCRAFPFHLMFDPSMSVLQLGEGLRKQLRCDTHKVLKFEDCFEIVSPKVNATFERVLLRLSTPFVIRTKPEASGSENKDKVMEVKGQMIHVPESNSILFLGSPCVDKLDELMGRGLHLSDIPIHDATRDVILVGEQAKAQDGLKKRMDKLKATLERTHQALEEEKKKTVDLLYSIFPGDVAQQLWQGQQVQARKFDDVTMLFSDIVGFTAICAQCTPMQVISMLNELYTRFDHQCGFLDIYKVETIGDAYCVAAGLHRKSLCHAKPIALMALKMMELSEEVLTPDGRPIQMRIGIHSGSVLAGVVGVRMPRYCLFGNNVTLASKFESGSHPRRINVSPTTYQLLKREESFTFIPRSREELPDNFPKEIPGICYFLEVRTGPKPPKPSLSSSRIKKVSYNIGTMFLRETSL
B3: Olfactory receptor 5F1 (Homo sapiens), O95221 (parent)
chain: MTRKNYTSLTEFVLLGLADTLELQIILFLFFLVIYTLTVLGNLGMILLIRIDSQLHTPMYFFLANLSFVDVCNSTTITPKMLADLLSEKKTISFAGCFLQMYFFISLATTECILFGLMAYDRYAAICRPLLYSLIMSRTVYLKMAAGAFAAGLLNFMVNTSHVSSLSFCDSNVIHHFFCDSPPLFKLSCSDTILKESISSILAGVNIVGTLLVILSSYSYVLFSIFSMHSGEGRHRAFSTCASHLTAIILFYATCIYTYLRPSSSYSLNQDKVASVFYTVVIPMLNPLIYSLRSKEVKKALANVISRKRTSSFL

Variants of: B1
Conditions: with scrib_human SCRIB

Variant | effect of a mutation on the interaction
MSSPPPARSGFYRQEVTKTAWEVRAVYRDLQPVGSGAYGAVCSAVDGRTGAKVAIKKLYRPFQSELFAKRAYRELRLLKHMRHENVIGLLDVFTPDETLDDFTDFYLVMPFMGTDLGKLMKHEKLGEDRIQFLVYQMLKGLRYIHAAGIIHRDLKPGNLAVNEDCELKILDFGLARQADSEMTGYVVTRWYRAPEVILNWMRYTQTVDIWSVGCIMAEMITGKTLFKGSDHLDQLKEIMKVTGTPPAEFVQRLQSDEAKNYMKGLPELEKKDFASILTNASPLAVNLLEKMLVLDAEQRVTAGEALAHPYFESLHDTEDEPQVQKYDDSFDDVDRTLDEWKRVTYKEVLSFKPPRQLGARVSKEEPL [T365E] | disrupting interaction strength

Variants of: B1
Conditions: with dlg1_human DLG1, Q12959

Variant | effect of a mutation on the interaction
MSSPPPARSGFYRQEVTKTAWEVRAVYRDLQPVGSGAYGAVCSAVDGRTGAKVAIKKLYRPFQSELFAKRAYRELRLLKHMRHENVIGLLDVFTPDETLDDFTDFYLVMPFMGTDLGKLMKHEKLGEDRIQFLVYQMLKGLRYIHAAGIIHRDLKPGNLAVNEDCELKILDFGLARQADSEMTGYVVTRWYRAPEVILNWMRYTQTVDIWSVGCIMAEMITGKTLFKGSDHLDQLKEIMKVTGTPPAEFVQRLQSDEAKNYMKGLPELEKKDFASILTNASPLAVNLLEKMLVLDAEQRVTAGEALAHPYFESLHDTEDEPQVQKYDDSFDDVDRTLDEWKRVTYKEVLSFKPPRQLGARVSKEEPL [T365E] | disrupting interaction strength

Variants of: B2
Conditions: with scrib_human SCRIB

Variant | effect of a mutation on the interaction
S731E | increasing interaction strength

Variants of: B3
Conditions: with scrib_human SCRIB

Variant | effect of a mutation on the interaction
MTRKNYTSLTEFVLLGLADTLELQIILFLFFLVIYTLTVLGNLGMILLIRIDSQLHTPMYFFLANLSFVDVCNSTTITPKMLADLLSEKKTISFAGCFLQMYFFISLATTECILFGLMAYDRYAAICRPLLYSLIMSRTVYLKMAAGAFAAGLLNFMVNTSHVSSLSFCDSNVIHHFFCDSPPLFKLSCSDTILKESISSILAGVNIVGTLLVILSSYSYVLFSIFSMHSGEGRHRAFSTCASHLTAIILFYATCIYTYLRPSSSYSLNQDKVASVFYTVVIPMLNPLIYSLRSKEVKKALANVISRKRTESFL [S311E] | causing an interaction
